Experimental findings from publication PMC3495951 are described below.

In the assay the target is EGFP-H2B (UniProt P06899). Kind of assay: FRET or BRET; FLIM-FRET in living cells at 37°C; EGFP fusion as donor, mCherry fusion as acceptor; two-photon excitation at 890 nm; FRET efficiency = 1 - (tauDA/tauD), tauD from cells with mCherry-C1; control cells and TSA-treated cells.

For the substance “mCherry-SRSF1 (from UniProt Q07955 1-248) (natural protein)”, the FRET efficiency (minor population) came out at 6%.
